Columns and labels:
ADRB2-VC = molecular target: T1, ADRB2-VC (human, UniProt P07550 1-413); assay: BiFC, U-2 OS cells
T1 construct: whole, on cells; Adenovirus-expressed in U-2 OS cells; not shown: VC155, C-terminal fragment of Venus
Procedure: (§1) Images of about 200 cells from each well were analyzed with Multi-target analysis software in IN Cell Developer ToolBox (GE Healthcare, Waukesha, Wis.). Cell boundary was marked based on Hoechst signal, and fluorescence intensity per cell was measured. Cells with fluorescence intensities higher than background level were considered as BiFC positive cells. […] Positive cells were determined, and positive cell count ratio (“BiFC score”) was calculated as (positive cells/total cells)×100 (see Table 4 below).

EDNRB-VC = molecular target: T2, EDNRB-VC (human, UniProt P24530 27-442); assay: BiFC, U-2 OS cells
T2 construct: whole, on cells; Adenovirus-expressed in U-2 OS cells; not shown: VC155, C-terminal fragment of Venus
T2 sequence (looked up): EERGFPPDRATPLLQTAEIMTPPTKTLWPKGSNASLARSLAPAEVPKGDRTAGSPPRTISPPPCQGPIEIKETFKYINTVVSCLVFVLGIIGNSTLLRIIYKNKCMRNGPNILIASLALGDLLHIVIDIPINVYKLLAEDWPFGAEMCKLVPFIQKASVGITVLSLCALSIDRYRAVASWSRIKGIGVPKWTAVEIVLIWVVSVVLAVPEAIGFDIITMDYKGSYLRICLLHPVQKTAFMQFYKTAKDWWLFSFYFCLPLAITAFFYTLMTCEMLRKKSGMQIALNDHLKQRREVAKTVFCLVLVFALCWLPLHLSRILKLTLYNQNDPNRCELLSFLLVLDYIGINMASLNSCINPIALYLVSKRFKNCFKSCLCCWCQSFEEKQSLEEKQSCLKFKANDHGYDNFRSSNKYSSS
Procedure: as §1

TACR3-VC = molecular target: T3, TACR3-VC (human, UniProt P29371 1-465); assay: BiFC, U-2 OS cells
T3 construct: whole, on cells; Adenovirus-expressed in U-2 OS cells; not shown: VC155, C-terminal fragment of Venus
T3 sequence (looked up): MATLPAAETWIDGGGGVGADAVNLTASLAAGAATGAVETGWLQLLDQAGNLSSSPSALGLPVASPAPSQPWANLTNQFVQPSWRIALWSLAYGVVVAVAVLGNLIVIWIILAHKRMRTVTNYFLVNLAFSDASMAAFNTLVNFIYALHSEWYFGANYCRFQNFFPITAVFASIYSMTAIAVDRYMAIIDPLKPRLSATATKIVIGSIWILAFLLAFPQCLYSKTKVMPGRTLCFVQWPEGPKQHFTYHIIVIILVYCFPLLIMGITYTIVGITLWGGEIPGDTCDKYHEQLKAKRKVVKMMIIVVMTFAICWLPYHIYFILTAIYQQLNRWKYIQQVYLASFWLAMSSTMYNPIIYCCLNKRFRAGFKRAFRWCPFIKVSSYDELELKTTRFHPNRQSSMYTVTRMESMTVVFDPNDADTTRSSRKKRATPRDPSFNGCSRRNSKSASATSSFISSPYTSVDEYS
Procedure: as §1

MLNR-VC = molecular target: T4, MLNR-VC (human, UniProt O43193 1-412); assay: BiFC, U-2 OS cells
T4 construct: whole, on cells; Adenovirus-expressed in U-2 OS cells; not shown: VC155, C-terminal fragment of Venus
T4 sequence (O43193 whole entry, the tested form may be a part): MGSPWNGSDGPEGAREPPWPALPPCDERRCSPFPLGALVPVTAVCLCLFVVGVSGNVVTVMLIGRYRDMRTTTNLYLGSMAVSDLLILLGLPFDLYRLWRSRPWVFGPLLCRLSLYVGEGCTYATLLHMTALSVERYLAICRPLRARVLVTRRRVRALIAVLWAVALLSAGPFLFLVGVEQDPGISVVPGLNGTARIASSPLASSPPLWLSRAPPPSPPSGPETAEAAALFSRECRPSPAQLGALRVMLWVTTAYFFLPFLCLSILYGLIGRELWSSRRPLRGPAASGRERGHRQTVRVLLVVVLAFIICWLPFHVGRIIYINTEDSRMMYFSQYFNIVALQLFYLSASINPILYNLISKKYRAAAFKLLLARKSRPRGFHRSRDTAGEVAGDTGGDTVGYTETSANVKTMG
Procedure: as §1

CHRM1-VC = molecular target: T5, CHRM1-VC (human, UniProt P11229 1-460); assay: BiFC, U-2 OS cells
T5 construct: whole, on cells; Adenovirus-expressed in U-2 OS cells; not shown: VC155, C-terminal fragment of Venus
T5 sequence (looked up): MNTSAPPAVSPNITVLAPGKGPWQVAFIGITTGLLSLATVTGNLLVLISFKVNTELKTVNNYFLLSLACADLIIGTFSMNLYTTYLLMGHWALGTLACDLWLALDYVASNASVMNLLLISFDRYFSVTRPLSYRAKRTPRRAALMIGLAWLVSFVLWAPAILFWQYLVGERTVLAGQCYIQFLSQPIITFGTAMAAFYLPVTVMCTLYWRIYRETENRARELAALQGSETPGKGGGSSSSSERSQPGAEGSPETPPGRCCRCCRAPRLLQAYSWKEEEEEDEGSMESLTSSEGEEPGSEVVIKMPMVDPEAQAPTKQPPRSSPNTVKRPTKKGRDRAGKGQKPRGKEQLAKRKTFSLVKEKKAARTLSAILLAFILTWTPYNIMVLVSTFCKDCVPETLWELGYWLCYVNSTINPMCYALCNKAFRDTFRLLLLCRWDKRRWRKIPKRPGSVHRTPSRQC
Procedure: as §1

NTSR1-VC = molecular target: T6, NTSR1-VC (human, UniProt P30989 1-418); assay: BiFC, U-2 OS cells
T6 construct: whole, on cells; Adenovirus-expressed in U-2 OS cells; not shown: VC155, C-terminal fragment of Venus
T6 sequence (P30989 whole entry, the tested form may be a part): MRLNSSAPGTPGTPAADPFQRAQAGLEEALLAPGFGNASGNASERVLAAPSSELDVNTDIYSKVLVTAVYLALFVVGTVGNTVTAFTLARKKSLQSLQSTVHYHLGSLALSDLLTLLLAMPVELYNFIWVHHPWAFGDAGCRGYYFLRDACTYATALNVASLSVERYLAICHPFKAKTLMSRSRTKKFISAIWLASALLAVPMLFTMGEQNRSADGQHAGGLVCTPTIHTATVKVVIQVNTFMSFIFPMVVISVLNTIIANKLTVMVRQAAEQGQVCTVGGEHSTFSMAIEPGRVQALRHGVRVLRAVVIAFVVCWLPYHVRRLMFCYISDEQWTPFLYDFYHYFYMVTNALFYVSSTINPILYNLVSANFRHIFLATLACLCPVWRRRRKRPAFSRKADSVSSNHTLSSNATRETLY
Procedure: as §1

HRH1-VC = molecular target: T7, HRH1-VC (human, UniProt P35367 1-487); assay: BiFC, U-2 OS cells
T7 construct: whole, on cells; Adenovirus-expressed in U-2 OS cells; not shown: VC155, C-terminal fragment of Venus
T7 sequence (P35367 whole entry, the tested form may be a part): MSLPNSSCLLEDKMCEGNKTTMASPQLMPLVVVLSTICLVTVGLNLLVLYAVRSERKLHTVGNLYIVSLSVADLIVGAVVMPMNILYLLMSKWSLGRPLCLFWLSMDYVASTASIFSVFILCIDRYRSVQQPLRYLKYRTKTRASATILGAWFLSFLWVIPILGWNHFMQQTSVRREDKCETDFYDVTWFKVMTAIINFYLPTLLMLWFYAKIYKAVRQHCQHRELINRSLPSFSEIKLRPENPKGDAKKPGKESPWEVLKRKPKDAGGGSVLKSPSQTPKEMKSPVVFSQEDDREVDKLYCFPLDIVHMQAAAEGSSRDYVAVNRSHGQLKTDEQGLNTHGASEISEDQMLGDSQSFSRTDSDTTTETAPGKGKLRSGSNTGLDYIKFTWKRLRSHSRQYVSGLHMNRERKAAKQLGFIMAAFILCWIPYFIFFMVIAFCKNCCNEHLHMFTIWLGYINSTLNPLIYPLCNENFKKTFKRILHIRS
Procedure: as §1

PTGER2-VC = molecular target: T8, PTGER2-VC (human, UniProt P43116 1-358); assay: BiFC, U-2 OS cells
T8 construct: whole, on cells; Adenovirus-expressed in U-2 OS cells; not shown: VC155, C-terminal fragment of Venus
T8 sequence (P43116 whole entry, the tested form may be a part): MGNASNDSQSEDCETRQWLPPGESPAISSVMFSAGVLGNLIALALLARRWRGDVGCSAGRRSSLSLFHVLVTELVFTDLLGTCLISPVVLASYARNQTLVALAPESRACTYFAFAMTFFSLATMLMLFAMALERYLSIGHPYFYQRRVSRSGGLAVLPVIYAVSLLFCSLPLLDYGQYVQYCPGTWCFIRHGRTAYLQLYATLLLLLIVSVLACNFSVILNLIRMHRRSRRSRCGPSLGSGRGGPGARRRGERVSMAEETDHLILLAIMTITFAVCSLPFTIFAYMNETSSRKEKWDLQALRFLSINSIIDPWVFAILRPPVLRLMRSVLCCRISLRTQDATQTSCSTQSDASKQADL
Procedure: as §1

GCGR-VC = molecular target: T9, GCGR-VC (human, UniProt P47871 26-477); assay: BiFC, U-2 OS cells co-expressing CXCR4-VN and GCGR-VC
T9 construct: whole, on cells; Adenovirus-expressed in U-2 OS cells; also called glucagon receptor-VC; not shown: VC155, C-terminal fragment of Venus
T9 sequence (P47871 26-477): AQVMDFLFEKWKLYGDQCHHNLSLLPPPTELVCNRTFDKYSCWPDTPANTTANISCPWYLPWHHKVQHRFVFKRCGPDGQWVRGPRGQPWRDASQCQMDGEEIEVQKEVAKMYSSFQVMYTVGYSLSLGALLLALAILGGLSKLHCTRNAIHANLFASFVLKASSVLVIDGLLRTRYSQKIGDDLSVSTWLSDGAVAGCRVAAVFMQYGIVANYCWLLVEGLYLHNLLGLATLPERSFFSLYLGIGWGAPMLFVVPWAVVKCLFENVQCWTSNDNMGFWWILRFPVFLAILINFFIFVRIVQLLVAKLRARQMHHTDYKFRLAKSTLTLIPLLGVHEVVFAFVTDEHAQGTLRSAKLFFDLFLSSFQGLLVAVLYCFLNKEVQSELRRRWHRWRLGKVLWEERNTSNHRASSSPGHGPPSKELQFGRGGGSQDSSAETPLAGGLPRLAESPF
Procedure: as §1

APLNR-VC = molecular target: T10, APLNR-VC (human, UniProt P35414 1-380); assay: BiFC and co-internalization assay, U-2 OS cells
T10 construct: whole, on cells; Adenovirus-expressed in U-2 OS cells; not shown: VC155, C-terminal fragment of Venus
T10 sequence (looked up): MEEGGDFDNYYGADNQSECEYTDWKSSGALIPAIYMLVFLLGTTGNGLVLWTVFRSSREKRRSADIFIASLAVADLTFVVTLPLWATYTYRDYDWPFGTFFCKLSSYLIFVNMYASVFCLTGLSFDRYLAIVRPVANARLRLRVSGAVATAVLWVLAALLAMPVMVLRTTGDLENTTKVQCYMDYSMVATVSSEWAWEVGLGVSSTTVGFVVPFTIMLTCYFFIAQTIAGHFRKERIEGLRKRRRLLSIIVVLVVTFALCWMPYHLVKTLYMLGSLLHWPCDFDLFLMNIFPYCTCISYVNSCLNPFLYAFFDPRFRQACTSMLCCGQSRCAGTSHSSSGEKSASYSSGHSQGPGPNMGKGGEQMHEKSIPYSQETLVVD

SSTR2-VC = molecular target: T11, SSTR2-VC (human, UniProt P30874 1-369); assay: BiFC and co-internalization assay, U-2 OS cells
T11 construct: whole, on cells; Adenovirus-expressed in U-2 OS cells; not shown: VC155, C-terminal fragment of Venus
T11 sequence (P30874 whole entry, the tested form may be a part): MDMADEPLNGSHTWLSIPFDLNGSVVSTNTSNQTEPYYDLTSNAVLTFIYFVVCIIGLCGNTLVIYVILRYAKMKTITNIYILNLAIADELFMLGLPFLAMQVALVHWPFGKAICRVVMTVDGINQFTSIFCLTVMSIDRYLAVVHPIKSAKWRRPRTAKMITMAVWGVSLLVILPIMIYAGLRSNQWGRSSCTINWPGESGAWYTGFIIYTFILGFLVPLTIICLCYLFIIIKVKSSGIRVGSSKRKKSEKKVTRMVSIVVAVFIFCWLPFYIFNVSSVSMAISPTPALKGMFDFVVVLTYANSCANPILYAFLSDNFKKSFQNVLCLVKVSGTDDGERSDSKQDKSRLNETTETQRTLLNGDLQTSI

CNR2-VC = molecular target: T12, CNR2-VC (human, UniProt P34972 1-360); assay: BiFC and co-internalization assay, U-2 OS cells
T12 construct: whole, on cells; Adenovirus-expressed in U-2 OS cells; also called Cannabinoid Receptor 2-VC; CB2; not shown: VC155, C-terminal fragment of Venus
T12 sequence (P34972 whole entry, the tested form may be a part): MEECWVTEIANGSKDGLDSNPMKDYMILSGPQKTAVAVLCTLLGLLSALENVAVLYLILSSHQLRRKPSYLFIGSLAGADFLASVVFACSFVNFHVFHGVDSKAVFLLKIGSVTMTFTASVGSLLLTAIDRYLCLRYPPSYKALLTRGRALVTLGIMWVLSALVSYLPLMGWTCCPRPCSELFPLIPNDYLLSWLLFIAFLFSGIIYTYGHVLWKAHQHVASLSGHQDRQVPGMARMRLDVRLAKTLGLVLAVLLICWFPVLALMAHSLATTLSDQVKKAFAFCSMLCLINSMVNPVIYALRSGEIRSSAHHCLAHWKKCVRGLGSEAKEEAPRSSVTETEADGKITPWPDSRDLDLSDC

B1: CXCR4-VN (receptor, human, UniProt P61073 1-352, looked up)
chain: MEGISIYTSDNYTEEMGSGDYDSMKEPCFREENANFNKIFLPTIYSIIFLTGIVGNGLVILVMGYQKKLRSMTDKYRLHLSVADLLFVITLPFWAVDAVANWYFGNFLCKAVHVIYTVNLYSSVLILAFISLDRYLAIVHATNSQRPRKLLAEKVVYVGVWIPALLLTIPDFIFANVSEADDRYICDRFYPNDLWVVVFQFQHIMVGLILPGIVILSCYCIIISKLSHSKGHQKRKALKTTVILILAFFACWLPYYIGISIDSFILLEIIKQGCEFENTVHKWISITEALAFFHCCLNPILYAFLGAKFKTSAQHALTSVSRGSSLKILSKGKRGGHSSVSTESESSSFHSS
notes: whole, on cells; Adenovirus-expressed in U-2 OS cells; also called CXCR4 fused with N-terminal fragment of Venus; not shown: VNm10, N-terminal fragment of Venus (VN154 variant with L46F and L64F)
B1: binds (ADRB2-VC); binds (EDNRB-VC); binds (TACR3-VC). B1: binds (MLNR-VC); binds (CHRM1-VC); binds (NTSR1-VC). B1: binds (HRH1-VC); binds (PTGER2-VC); no binding (GCGR-VC). B1: binds (APLNR-VC); binds (SSTR2-VC); binds (CNR2-VC).

— patent US20190183976A1 (GPCR THERAPEUTICS, published 2019)
